Source: publication PMC10681739, “High-throughput data and modeling reveal insights into the mechanisms of cooperative DNA-binding by transcription factor proteins”

B1: Table S4 A row 2212 (dsDNA)
DNA 1: CTGGGCCAGGCGGAAGCTCTGCTTCCGCATGCTGGG
DNA 2: CCCAGCATGCGGAAGCAGAGCTTCCGCCTGGCCCAG
B2: Table S4 A row 215 (dsDNA)
DNA 1: GGGCCCCAGCTTCCTCTCTGCCTTCCGCCGCCCGCT
DNA 2: AGCGGGCGGCGGAAGGCAGAGAGGAAGCTGGGGCCC
B3: Table S4 A row 954 (dsDNA)
DNA 1: GGTATACAGGAAACCCAGAGAGACAGGAAATGTCTC
DNA 2: GAGACATTTCCTGTCTCTCTGGGTTTCCTGTATACC
B4: Table S4 A row 2352 (dsDNA)
DNA 1: CGCCGCTGACACCGGAACCGGAAACTTCATCAGGAG
DNA 2: CTCCTGATGAAGTTTCCGGTTCCGGTGTCAGCGGCG
B5: Table S4 A row 842 (dsDNA)
DNA 1: GGGTGGCCCAGGCTTCCGCTTCCTGCCCACATACCC
DNA 2: GGGTATGTGGGCAGGAAGCGGAAGCCTGGGCCACCC
B6: Table S4 A row 1500 (dsDNA)
DNA 1: CTCGTCGCCAGGGGAAGTGCTTCCTGCTGACAGGTC
DNA 2: GACCTGTCAGCAGGAAGCACTTCCCCTGGCGACGAG
B7: Table S4 A row 126 (dsDNA)
DNA 1: CACTGCACACTTCCTAGCAGGCTTCCTGTGTAGCTG
DNA 2: CAGCTACACAGGAAGCCTGCTAGGAAGTGTGCAGTG
B8: Table S4 A row 189 (dsDNA)
DNA 1: CACTTTCTGAAGAGGAAACAGGAAGTGTGTTTCATA
DNA 2: TATGAAACACACTTCCTGTTTCCTCTTCAGAAAGTG
B9: Table S4 A row 2304 (dsDNA)
DNA 1: GCGGCCTGACGGGAAACGTAGTTTCCGGGGCCAAGA
DNA 2: TCTTGGCCCCGGAAACTACGTTTCCCGTCAGGCCGC
B10: Table S4 A row 557 (dsDNA)
DNA 1: TTGACATCCTGCTCTCCTGTGACTTTGCTTCCTGTT
DNA 2: AACAGGAAGCAAAGTCACAGGAGAGCAGGATGTCAA
B11: Table S4 A row 314 (dsDNA)
DNA 1: TTGGGAGGCACAGGAAGACCGGATGTGGTTTAAGAA
DNA 2: TTCTTAAACCACATCCGGTCTTCCTGTGCCTCCCAA
B12: Table S4 A row 822 (dsDNA)
DNA 1: AGCAGCTCAACAGGAAATACATCCTTTTCTGGTTGA
DNA 2: TCAACCAGAAAAGGATGTATTTCCTGTTGAGCTGCT
B13: Table S4 A row 1689 (dsDNA)
DNA 1: TGCCCGGATGTTGAGGTCTGGTTGGCATTTCCTGTG
DNA 2: CACAGGAAATGCCAACCAGACCTCAACATCCGGGCA
B14: Table S4 A row 1614 (dsDNA)
DNA 1: GTTCTTCGACCCGGATGCGCTTCCTAATAAAACGGC
DNA 2: GCCGTTTTATTAGGAAGCGCATCCGGGTCGAAGAAC
B15: Table S4 A row 2457 (dsDNA)
DNA 1: TGCAGCTAACTACTTCCGCTTCCGCTTGCGTCCCCT
DNA 2: AGGGGACGCAAGCGGAAGCGGAAGTAGTTAGCTGCA
B16: Table S4 A row 2310 (dsDNA)
DNA 1: CATACGGCGCCACCGGAAGTTCCGGCAAGTGGGCCC
DNA 2: GGGCCCACTTGCCGGAACTTCCGGTGGCGCCGTATG
B17: Table S4 A row 255 (dsDNA)
DNA 1: CTGGAGGCAGGCTTCCTGTGCTTCCTGTAGGTGACA
DNA 2: TGTCACCTACAGGAAGCACAGGAAGCCTGCCTCCAG
B18: Table S4 A row 2364 (dsDNA)
DNA 1: GTGGGGCTTCCTGCCGCAGAGCCGCCTTCCGCCCTC
DNA 2: GAGGGCGGAAGGCGGCTCTGCGGCAGGAAGCCCCAC
B19: Table S4 A row 809 (dsDNA)
DNA 1: GCTTGGGTGTTTCCTGTGCTGCTTCCTCTCCAACCT
DNA 2: AGGTTGGAGAGGAAGCAGCACAGGAAACACCCAAGC
B20: Table S4 A row 1450 (dsDNA)
DNA 1: CTCCCACTTCCTTCCTGTGCGGGGAAGAAAACTGCC
DNA 2: GGCAGTTTTCTTCCCCGCACAGGAAGGAAGTGGGAG
B21: Table S4 A row 1203 (dsDNA)
DNA 1: GGAGCGGAAGCCCTTTACACTACGGTGTTTCCGGCT
DNA 2: AGCCGGAAACACCGTAGTGTAAAGGGCTTCCGCTCC
B22: Table S4 A row 2527 (dsDNA)
DNA 1: GCCTGAAGCCGGAAGACTATAGCTTCCCGGCATGCA
DNA 2: TGCATGCCGGGAAGCTATAGTCTTCCGGCTTCAGGC
B23: Table S4 A row 57 (dsDNA)
DNA 1: ACTGGAGAACAGGAAATAGCAGGAAACGTCACCTAC
DNA 2: GTAGGTGACGTTTCCTGCTATTTCCTGTTCTCCAGT
B24: Table S4 A row 2476 (dsDNA)
DNA 1: TGTGCCGTAGCATTTCCGGCGGAAGTTGCTGGGCGC
DNA 2: GCGCCCAGCAACTTCCGCCGGAAATGCTACGGCACA
B25: Table S4 A row 1898 (dsDNA)
DNA 1: CCACCGGAAGACCTCAGTCATGTGGGTTTTCCGGTT
DNA 2: AACCGGAAAACCCACATGACTGAGGTCTTCCGGTGG
B26: Table S4 A row 2128 (dsDNA)
DNA 1: CCGGCCCGCAGCCGGAACCGGAAATGCCCTTAGGGA
DNA 2: TCCCTAAGGGCATTTCCGGTTCCGGCTGCGGGCCGG
B27: Table S4 A row 323 (dsDNA)
DNA 1: TCCATGACCCCATTTCCGCTTCCTACAGGTGAGTGT
DNA 2: ACACTCACCTGTAGGAAGCGGAAATGGGGTCATGGA
B28: Table S4 A row 2376 (dsDNA)
DNA 1: CCCAGAGCCAATTTTCCACTTCCGCTTCCGGCGCTG
DNA 2: CAGCGCCGGAAGCGGAAGTGGAAAATTGGCTCTGGG
B29: Table S4 A row 376 (dsDNA)
DNA 1: CGTGACACTTCTTTTCCTGTTTCCTGGGTCTCACCA
DNA 2: TGGTGAGACCCAGGAAACAGGAAAAGAAGTGTCACG
B30: Table S4 A row 1340 (dsDNA)
DNA 1: TTGAGGCCCAGACCGGAACTTCCTTTCGGCCTCAGT
DNA 2: ACTGAGGCCGAAAGGAAGTTCCGGTCTGGGCCTCAA
B31: Table S4 A row 2542 (dsDNA)
DNA 1: GGGAAACTCCACAGGAAACGGAAATGGTCTCTCCCA
DNA 2: TGGGAGAGACCATTTCCGTTTCCTGTGGAGTTTCCC
B32: Table S4 A row 763 (dsDNA)
DNA 1: GGGCAACTTCCGCGACCTCTACCACATCCTTGAGAA
DNA 2: TTCTCAAGGATGTGGTAGAGGTCGCGGAAGTTGCCC
B33: Table S4 A row 1964 (dsDNA)
DNA 1: CCACGGTGGTGACTTCCTTTTCCGCTCCCCTACACA
DNA 2: TGTGTAGGGGAGCGGAAAAGGAAGTCACCACCGTGG
B34: Table S4 A row 916 (dsDNA)
DNA 1: ACTGCAGATCCCCTTCCTGTTTCCTTTGCTCTCCTG
DNA 2: CAGGAGAGCAAAGGAAACAGGAAGGGGATCTGCAGT
B35: Table S4 A row 1913 (dsDNA)
DNA 1: AAATAACAGAAAGGAAATACATCCTGCCAGTTAACA
DNA 2: TGTTAACTGGCAGGATGTATTTCCTTTCTGTTATTT
B36: Table S4 A row 1712 (dsDNA)
DNA 1: CACGAGTCCAGGAAACAAGTGCTTCCTGCCTATGGG
DNA 2: CCCATAGGCAGGAAGCACTTGTTTCCTGGACTCGTG
B37: Table S4 A row 1887 (dsDNA)
DNA 1: CACTCAGGAAGTAGGTCAGGAGGAGATATCCTGTGT
DNA 2: ACACAGGATATCTCCTCCTGACCTACTTCCTGAGTG
B38: Table S4 A row 1991 (dsDNA)
DNA 1: GCGCGCACCCTCCTTCCGGCATCCGTAGAACCCCCG
DNA 2: CGGGGGTTCTACGGATGCCGGAAGGAGGGTGCGCGC
B39: Table S4 A row 1258 (dsDNA)
DNA 1: CCATCAGCAAACATCCCACCGGATGTTTTCTTAAGC
DNA 2: GCTTAAGAAAACATCCGGTGGGATGTTTGCTGATGG
B40: Table S4 A row 1550 (dsDNA)
DNA 1: AAGTTGGGCCTGACTTCCTTCCTGTGGGGTTGCAGC
DNA 2: GCTGCAACCCCACAGGAAGGAAGTCAGGCCCAACTT
B41: Table S4 A row 2250 (dsDNA)
DNA 1: CTGACAGACCCGGAAATAAGAGGAAACCACACACTT
DNA 2: AAGTGTGTGGTTTCCTCTTATTTCCGGGTCTGTCAG
B42: Table S4 A row 634 (dsDNA)
DNA 1: AGACAGACACTGCTTCCTGCTTCCTAATGGCCGATC
DNA 2: GATCGGCCATTAGGAAGCAGGAAGCAGTGTCTGTCT

target: T1, ETS1 x2 (Homo sapiens, UniProt P14921); assay: gcPBM; 10 nM ETS1; settings: tags: N-terminal GST (pDEST15), kept (PMC6008103); chain copies: 2; label: surface-attached array probe
T1 sequence: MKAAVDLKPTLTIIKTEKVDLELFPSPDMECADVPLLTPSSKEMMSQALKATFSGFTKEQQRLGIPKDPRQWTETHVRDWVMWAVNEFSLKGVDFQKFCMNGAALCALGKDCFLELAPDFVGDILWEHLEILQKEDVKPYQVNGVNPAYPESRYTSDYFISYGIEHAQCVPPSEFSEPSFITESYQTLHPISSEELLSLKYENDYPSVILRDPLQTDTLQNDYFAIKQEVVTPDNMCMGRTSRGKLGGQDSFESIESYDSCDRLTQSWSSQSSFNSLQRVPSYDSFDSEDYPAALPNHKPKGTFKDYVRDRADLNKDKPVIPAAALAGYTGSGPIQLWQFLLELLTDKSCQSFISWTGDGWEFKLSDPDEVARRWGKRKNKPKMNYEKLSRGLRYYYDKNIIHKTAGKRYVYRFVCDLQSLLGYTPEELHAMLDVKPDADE

Compared with B1, B2 is higher in binding signal: 4240 PBM fluorescence, median of replicate spots for the first, 6960 PBM fluorescence, median of replicate spots for the second.

Going from B3 to B4, the binding signal rises from 5630 PBM fluorescence, median of replicate spots to 6600 PBM fluorescence, median of replicate spots.

Compared with B5, B6 is lower in binding signal: 10900 PBM fluorescence, median of replicate spots for the first, 4140 PBM fluorescence, median of replicate spots for the second.

Going from B7 to B8, the binding signal rises from 4970 PBM fluorescence, median of replicate spots to 8380 PBM fluorescence, median of replicate spots.

Going from B9 to B10, the binding signal rises from 4630 PBM fluorescence, median of replicate spots to 20500 PBM fluorescence, median of replicate spots.

First: B11
Second: B12
The binding signal of the first is higher: 12700 PBM fluorescence, median of replicate spots for the first, 11900 PBM fluorescence, median of replicate spots for the second.

Compared with B13, B14 is lower in binding signal: 9040 PBM fluorescence, median of replicate spots for the first, 5240 PBM fluorescence, median of replicate spots for the second.

Compared with B15, B16 is lower in binding signal: 24300 PBM fluorescence, median of replicate spots for the first, 18500 PBM fluorescence, median of replicate spots for the second.

First: B17
Second: B18
The binding signal of the first is lower: 9790 PBM fluorescence, median of replicate spots for the first, 17300 PBM fluorescence, median of replicate spots for the second.

Compared with B19, B20 is higher in binding signal: 23300 PBM fluorescence, median of replicate spots for the first, 25000 PBM fluorescence, median of replicate spots for the second.

Going from B21 to B22, the binding signal falls from 5440 PBM fluorescence, median of replicate spots to 3700 PBM fluorescence, median of replicate spots.

Compared with B23, B24 is higher in binding signal: 13600 PBM fluorescence, median of replicate spots for the first, 26900 PBM fluorescence, median of replicate spots for the second.

Compared with B25, B26 is higher in binding signal: 7470 PBM fluorescence, median of replicate spots for the first, 17000 PBM fluorescence, median of replicate spots for the second.

Compared with B27, B28 is lower in binding signal: 21500 PBM fluorescence, median of replicate spots for the first, 15700 PBM fluorescence, median of replicate spots for the second.

Compared with B29, B30 is higher in binding signal: 4760 PBM fluorescence, median of replicate spots for the first, 5800 PBM fluorescence, median of replicate spots for the second.

Going from B31 to B32, the binding signal rises from 4020 PBM fluorescence, median of replicate spots to 19000 PBM fluorescence, median of replicate spots.

Compared with B33, B34 is lower in binding signal: 7690 PBM fluorescence, median of replicate spots for the first, 6260 PBM fluorescence, median of replicate spots for the second.

Going from B35 to B36, the binding signal falls from 8690 PBM fluorescence, median of replicate spots to 3840 PBM fluorescence, median of replicate spots.

First: B37
Second: B38
The binding signal of the first is lower: 6420 PBM fluorescence, median of replicate spots for the first, 15100 PBM fluorescence, median of replicate spots for the second.

First: B39
Second: B40
The binding signal of the first is lower: 5080 PBM fluorescence, median of replicate spots for the first, 5110 PBM fluorescence, median of replicate spots for the second.

Compared with B41, B42 is higher in binding signal: 8250 PBM fluorescence, median of replicate spots for the first, 10500 PBM fluorescence, median of replicate spots for the second.
